From US20180194839A1 come the findings set out here.

Experiment [1] addresses recombinant human IL-17A (SEQ ID NO: 76) (human) (UniProt Q16552). Briefly: cell-based or functional assay.
The target of experiment [2] is recombinant mouse IL-17A (SEQ ID NO: 83) (mouse) (UniProt Q62386). Briefly: cell-based or functional assay.
The target in experiment [3] is recombinant rat IL-17A (SEQ ID NO: 85) (rat) (UniProt Q61453). Briefly: cell-based or functional assay.
For experiment [4], the target named is recombinant mouse IL-17A/F (R&D Systems Cat#5390-IL) (mouse) (UniProt Q62386). Briefly: cell-based or functional assay.
Chain of recombinant mouse IL-17A/F (R&D Systems Cat#5390-IL) (mouse) (Q62386 26-158 limits assumed, chain 1 of 2): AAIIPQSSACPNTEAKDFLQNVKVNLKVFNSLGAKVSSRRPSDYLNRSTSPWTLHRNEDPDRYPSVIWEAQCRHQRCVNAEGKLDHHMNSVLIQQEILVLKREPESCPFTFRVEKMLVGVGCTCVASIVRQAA
Chain of recombinant mouse IL-17A/F (R&D Systems Cat#5390-IL) (mouse) (Q7TNI7 29-161 limits assumed, chain 2 of 2, further chain): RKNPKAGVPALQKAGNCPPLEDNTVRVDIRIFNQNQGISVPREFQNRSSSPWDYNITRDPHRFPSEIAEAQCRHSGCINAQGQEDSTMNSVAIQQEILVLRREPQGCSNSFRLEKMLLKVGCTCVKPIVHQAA
The target of experiment [5] is recombinant human IL-17F (SEQ ID NO: 77) (human) (UniProt Q96PD4). Description: cell-based or functional assay.
Chain of recombinant human IL-17F (SEQ ID NO: 77) (human) (Q96PD4 other isoform, or with tags, fused parts or gaps limits assumed): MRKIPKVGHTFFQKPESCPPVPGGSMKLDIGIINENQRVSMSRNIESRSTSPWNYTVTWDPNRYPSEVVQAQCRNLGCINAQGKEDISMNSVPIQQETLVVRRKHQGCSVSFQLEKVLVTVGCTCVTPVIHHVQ
Experiment [6] deals with recombinant human IL-17A/F heterodimer (human) (UniProt Q16552). Description: cell-based or functional assay.
Chain of recombinant human IL-17A/F heterodimer (human) (Q16552 24-155 limits assumed, chain 1 of 2): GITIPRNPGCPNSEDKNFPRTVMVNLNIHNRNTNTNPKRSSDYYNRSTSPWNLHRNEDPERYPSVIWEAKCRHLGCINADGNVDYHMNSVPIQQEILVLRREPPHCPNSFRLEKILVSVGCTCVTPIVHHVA
Chain of recombinant human IL-17A/F heterodimer (human) (Q96PD4 31-163 limits assumed, chain 2 of 2, further chain): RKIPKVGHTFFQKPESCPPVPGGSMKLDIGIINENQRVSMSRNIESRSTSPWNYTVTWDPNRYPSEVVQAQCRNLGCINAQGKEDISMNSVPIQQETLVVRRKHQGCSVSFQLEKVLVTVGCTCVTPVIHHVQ
Experiment [7] deals with recombinant mouse IL-17F (SEQ ID NO: 84) (mouse) (UniProt Q7TNI7). Briefly: cell-based or functional assay.
Chain of recombinant mouse IL-17F (SEQ ID NO: 84) (mouse) (Q7TNI7 other isoform, or with tags, fused parts or gaps limits assumed): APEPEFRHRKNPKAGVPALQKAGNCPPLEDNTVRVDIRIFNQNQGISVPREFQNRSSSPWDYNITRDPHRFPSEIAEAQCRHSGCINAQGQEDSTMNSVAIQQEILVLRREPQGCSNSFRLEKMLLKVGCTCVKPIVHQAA
For experiment [8], the target named is BSA (UniProt P02769). Description: ELISA, BSA wells, control Ab 5 µg/ml (control antibody not identified).
Chain of BSA (P02769 25-607 limits assumed): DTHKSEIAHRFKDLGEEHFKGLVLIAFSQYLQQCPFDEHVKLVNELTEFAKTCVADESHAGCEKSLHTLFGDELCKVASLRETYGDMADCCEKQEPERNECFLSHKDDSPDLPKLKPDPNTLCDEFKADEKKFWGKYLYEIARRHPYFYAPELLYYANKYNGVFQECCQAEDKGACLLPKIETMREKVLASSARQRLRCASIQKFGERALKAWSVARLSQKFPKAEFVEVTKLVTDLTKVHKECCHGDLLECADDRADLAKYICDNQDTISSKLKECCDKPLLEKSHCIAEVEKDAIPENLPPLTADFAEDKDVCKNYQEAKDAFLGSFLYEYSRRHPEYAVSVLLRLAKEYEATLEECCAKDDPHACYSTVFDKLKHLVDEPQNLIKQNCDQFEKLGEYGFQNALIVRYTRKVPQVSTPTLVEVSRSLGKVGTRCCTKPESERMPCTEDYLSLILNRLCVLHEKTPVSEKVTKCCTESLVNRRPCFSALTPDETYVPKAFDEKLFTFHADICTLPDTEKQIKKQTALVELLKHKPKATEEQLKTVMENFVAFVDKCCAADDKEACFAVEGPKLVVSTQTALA
The target in experiment [9] is BSA (UniProt P02769). Briefly: ELISA, BSA wells, control Ab 1 µg/ml (control antibody not identified).

Chain of recombinant human IL-17A (SEQ ID NO: 76) (human) (Q16552 other isoform, or with tags, fused parts or gaps limits assumed): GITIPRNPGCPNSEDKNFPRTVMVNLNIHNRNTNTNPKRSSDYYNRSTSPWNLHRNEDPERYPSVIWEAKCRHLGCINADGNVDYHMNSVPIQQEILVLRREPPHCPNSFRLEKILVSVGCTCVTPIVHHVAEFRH
Chain of recombinant mouse IL-17A (SEQ ID NO: 83) (mouse) (Q62386 other isoform, or with tags, fused parts or gaps limits assumed): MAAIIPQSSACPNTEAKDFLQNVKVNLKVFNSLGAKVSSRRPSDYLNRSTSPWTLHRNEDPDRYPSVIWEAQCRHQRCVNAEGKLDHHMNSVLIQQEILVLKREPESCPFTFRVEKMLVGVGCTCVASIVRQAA
Chain of recombinant rat IL-17A (SEQ ID NO: 85) (rat) (Q61453 other isoform, or with tags, fused parts or gaps limits assumed): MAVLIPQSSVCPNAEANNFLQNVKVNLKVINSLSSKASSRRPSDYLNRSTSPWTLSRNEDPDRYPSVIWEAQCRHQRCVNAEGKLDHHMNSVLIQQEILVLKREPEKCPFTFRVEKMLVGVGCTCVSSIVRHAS

In the case of Simulect® (antibody), in [1], the IC50, hu-GRO-alpha secretion by BJ cells; stimulus IL-17A (30 pM) + TNF-α (6 pM) was > 3 µM; the IC50, hu-GRO-alpha secretion by BJ cells; stimulus IL-17A (1 nM) was > 100 nM; the IC50, huIL-6 secretion by BJ cells; stimulus rhuIL-17A (30 pM) + rhuTNF-α (6 pM) was > 3 µM; the IC50, huIL-6 secretion by BJ cells; stimulus rhuIL-17A (1 nM) is > 100 nM. Moreover, the IC50, mouse KC secretion by CMT-93 cells; stimulus mIL-17A (1 nM) in experiment [2] was > 3000 nM. The IC50, mouse KC secretion by CMT-93 cells; stimulus rIL-17A (1 nM) in experiment [3] was > 3000 nM. Further, the IC50, mouse KC secretion by CMT-93 cells; stimulus mIL-17A/F (3 nM) in experiment [4] was > 3000 nM. In [5], the IC50, hu-GRO-alpha secretion by BJ cells; stimulus IL-17F (10 nM) + TNF-α (6 pM) is > 3 µM; the IC50, hu-GRO-alpha secretion by BJ cells; stimulus IL-17F (30 nM) was > 1000 nM; the IC50, huIL-6 secretion by BJ cells; stimulus rhuIL-17F (10 nM) + rhuTNF-α (6 pM) is > 3 µM; the IC50, huIL-6 secretion by BJ cells; stimulus rhuIL-17F (30 nM) is > 1000 nM. In [6], the IC50, hu-GRO-alpha secretion by BJ cells; stimulus IL-17A/F (300 pM) + TNF-α (6 pM) is > 3 µM; the IC50, hu-GRO-alpha secretion by BJ cells; stimulus IL-17A/F (3 nM) is > 100 nM; the IC50, huIL-6 secretion by BJ cells; stimulus rhuIL-17A/F (300 pM) + rhuTNF-α (6 pM) is > 3 µM; the IC50, huIL-6 secretion by BJ cells; stimulus rhuIL-17A/F (3 nM) is > 100 nM. Besides, in [7], the IC50, mouse KC secretion by CMT-93 cells; stimulus mIL-17F (30 nM) is > 3000 nM.
Take “Control antibody (not identified for this antigen)”: the O.D. came to 0.01 O.D with BSA [8] and 0.149 O.D with BSA [9].
